Assay [1] deals with HLA-C*05:01 (1-278) refolded with β2-microglobulin (1-99) and P2-AW (…). The experiment in a line: SPR. (In SPR one partner is held on a chip, and binding of the other changes the refractive index at the surface.)
The target of assay [2] is HLA-C*08:02 on cells loaded with P2-MW with p6 Ile (human | human (endogenous in 721.221)). The experiment in a line: flow cytometry on cells. (In flow cytometry, cells or beads pass a laser one at a time.)
The target of assay [3] is HLA-C*08:02 on cells loaded with P2-MW with p6 Val (human | human (endogenous in 721.221)). The experiment in a line: flow cytometry on cells.
Assay [4] deals with HLA-C*08:02 on cells loaded with P2-MW with p6 Pro (human | human (endogenous in 721.221)). The experiment in a line: flow cytometry on cells.
Assay [5] has as its target HLA-C*08:02 on cells loaded with P2-MW with p6 Leu (human | human (endogenous in 721.221)). As to the kind of experiment: flow cytometry on cells.
Assay [6] deals with HLA-C*08:02 on cells loaded with P2-MW with p6 Lys (human | human (endogenous in 721.221)). The experiment in a line: flow cytometry on cells.
Assay [7] concerns the target HLA-C*05:01 on cells loaded with P2-MW with p6 Asn (human | human (endogenous in 721.221)). As to the kind of experiment: flow cytometry on cells.
Assay [8] concerns the target HLA-C*16:02 on cells loaded with P9 with the Q8S substitution (…) (human | human (endogenous in 721.221)). The experiment in a line: flow cytometry on cells.
The target of assay [9] is HLA-C*05:01 (1-278) refolded with β2-microglobulin (1-99) and P2-IP (…). The experiment in a line: SPR.
Assay [10] has as its target HLA-C*05:01 (1-278) refolded with β2-microglobulin (1-99) and P2-AV (…). As to the kind of experiment: SPR.

As usually defined, the Kd is the constant that tells how readily two partners part at equilibrium.

“2DS4 (3-200), recombinant, refolded (domain or fragment)”: in [1], the Kd was determined as 2000 nM. That is a single-digit micromolar value.
As for “KIR2DS4*001 KIR-Ig (KIR-Fc) fusion protein (from UniProt P43632 22-245) (Fc fusion)”, the percent of the binding with p6 Gly (P2-MW) in [2] was more than 50%; in [3], more than 50%; in assay [4], more than 50%; in assay [5], more than 50%; in [6], more than 50%; in assay [7] it was more than 25%.
Regarding “KIR2DS1*001-Fc (from UniProt Q14954 22-245) (Fc fusion)”, in assay [8], the fold change of binding against unmodified P9 is 5 fold.
Regarding “2DS1 (3-200), recombinant, refolded (domain or fragment)”, the Kd is 2300 nM in assay [9], 1900 nM in assay [1] and 2600 nM in assay [10].
Regarding “2DL1 (1-224), recombinant, refolded (from UniProt P43626 22-245) (domain or fragment)”, the dissociation constant Kd was determined as 440 nM in [9], 1100 nM in [1] and 1000 nM in [10].

The record behind these values is publication doi:10.1101/2023.02.06.527249.
